Experimental data reported in patent US20040142445.

B1: MDTS6TSP1 protein (protein)
chain: FVSIPRYVETLVVADESMVKFHGADLEHYLLTLLATAARLYRHPSILNPINIVVVKVLLLRDRDSGPKVTGNAALTLRNFCAWQKKLNKVSDKHPEYWDTAILFTRQDLCGATTCDTLGMADVGTMCDPKRSCSVIEDDGLPSAFTTAHELGHVFNMPHDNVKVCEEVFGKLRANHMMSPTLIQIDRANPWSACSAAIITDFLDSGHGDCLLDQPSKPISLPEDLPGASYTLSQQCELAFGVGSKPCPYMQYCTKLWCTGKAKGQMVCQTRHFPWADGTSCGEGKLCLKGACVERHNLNKHRVDGSWAKWDPYGPCSRTCGGGVQLARRQCTNPTPANGGKYCEGVRVKYRSCNLEPCPSSASGKSFREEQ
B2: MDTS6Pro (protein)
chain: FVSIPRYVETLVVADESMVKFHGADLEHYLLTLLATAARLYRHPSILNPINIVVVKVLLLRDRDSGPKVTGNAALTLRNFCAWQKKLNKVSDKHPEYWDTAILFTRQDLCGATTCDTLGMADVGTMCDPKRSCSVIEDDGLPSAFTTAHELGHVFNMPHDNVKVCEEVFGKLRANHMMSPTLIQIDRANPWSACSAAIITDFLDSGHGDCLLDQPSKPISLPEDLPGASYTLSQQGSAAADYKDDDDK
B3: MDTS6Cys (protein)
chain: FVSIPRYVETLVVADESMVKFHGADLEHYLLTLLATAARLYRHPSILNPINIVVVKVLLLRDRDSGPKVTGNAALTLRNFCAWQKKLNKVSDKHPEYWDTAILFTRQDLCGATTCDTLGMADVGTMCDPKRSCSVIEDDGLPSAFTTAHELGHVFNMPHDNVKVCEEVFGKLRANHMMSPTLIQIDRANPWSACSAAIITDFLDSGHGDCLLDQPSKPISLPEDLPGASYTLSQQCELAFGVGSKPCPYMQYCTKLWCTGKAKGQMVCQTRHFPWADGTSCGEGKLCLKGACVERHNLNKHRVDGSWAKWDPYGPCSRTCGGGVQLARRQCTNPTPANGGKYCEGVRVKYRSCNLEPCPSSASGKSFREEQCEAFNGYNHSTNRLTLAVAWVPKYSGVSPRDKCKLICRANGTGYFYVLAPKVVDGTLCSPDSTSVCVQGKCIKAGCDGNLGSKKRFDKCGVCGGDNKSCKKVTGGSAAADYKDDDDK
B4: MDTS6Dis (protein)
chain: FVSIPRYVETLVVADESMVKFHGADLEHYLLTLLATAARLYRHPSILNPINIVVVKVLLLRDRDSGPKVTGNAALTLRNFCAWQKKLNKVSDKHPEYWDTAILFTRQDLCGATTCDTLGMADVGTMCDPKRSCSVIEDDGLPSAFTTAHELGHVFNMPHDNVKVCEEVFGKLRANHMMSPTLIQIDRANPWSACSAAIITDFLDSGHGDCLLDQPSKPISLPEDLPGASYTLSQQCELAFGVGSKPCPYMQYCTKLWCTGKAKGQMVCQTRHFPWADGTSCGEGKLCLKGACVERHNLNKHRVDGSGSAAADYKDDDDK

Legend:
[1] = target: recombinant aggrecan G1G2, P16112
[2] = target: natural type aggrecan (mfd. by Seikagaku Kogyo)

Chain of recombinant aggrecan G1G2, P16112 (P16112 20-675): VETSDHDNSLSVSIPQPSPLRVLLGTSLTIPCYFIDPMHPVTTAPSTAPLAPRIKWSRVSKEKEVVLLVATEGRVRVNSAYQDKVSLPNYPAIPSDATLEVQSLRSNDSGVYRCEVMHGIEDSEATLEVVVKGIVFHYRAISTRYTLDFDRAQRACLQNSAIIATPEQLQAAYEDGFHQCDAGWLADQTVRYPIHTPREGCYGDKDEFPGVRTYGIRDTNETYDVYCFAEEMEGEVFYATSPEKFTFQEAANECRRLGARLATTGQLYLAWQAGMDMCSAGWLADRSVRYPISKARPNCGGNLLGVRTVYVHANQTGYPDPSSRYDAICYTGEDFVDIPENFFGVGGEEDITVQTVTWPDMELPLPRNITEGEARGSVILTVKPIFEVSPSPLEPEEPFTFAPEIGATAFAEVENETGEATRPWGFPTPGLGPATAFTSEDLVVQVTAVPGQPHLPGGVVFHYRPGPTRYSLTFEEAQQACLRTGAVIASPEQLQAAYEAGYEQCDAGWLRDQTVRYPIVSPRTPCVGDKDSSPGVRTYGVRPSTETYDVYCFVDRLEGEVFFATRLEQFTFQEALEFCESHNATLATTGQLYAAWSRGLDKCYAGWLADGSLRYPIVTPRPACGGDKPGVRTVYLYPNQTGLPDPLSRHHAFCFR

Protein | recombinant aggrecan G1G2 degrading activity (western blot, anti-His detection) [1] | aggrecanase activity (method of Example 7-3, neoepitope western blot) [1] | cleavage at the aggrecanase site (western blot) [2] | degradation of natural type aggrecan (neoepitope western blot) [2] | cleavage at the aggrecanase site (western blot) [1]
B1 | degraded fragment of the recombinant aggrecan, which was not found in the control in which only the expression plasmid was introduced, was detected |  |  |  | 
B2 |  | the aggrecanase activity was not detected in the culture supernatants in which MDTS6Pro and MDTS6Dis were expressed |  |  | 
B3 |  | the aggrecanase activity was detected in the culture supernatant in which MDTS6Cys was expressed | the recombinant aggrecan G1G2 and the natural type aggrecan are cleaved off at the site between Glu373-Ala374 ... by MDTS6Cys | a band of 80 to 90 KDa was detected in the case of MDTS6Cys in addition to a band of about 150 KDa | the recombinant aggrecan G1G2 and the natural type aggrecan are cleaved off at the site between Glu373-Ala374 ... by MDTS6Cys
B4 |  | the aggrecanase activity was not detected in the culture supernatants in which MDTS6Pro and MDTS6Dis were expressed |  |  | 
